Data set [1] has as its system Lewis lung carcinoma, melanoma (B16), T-cell lymphoma (EL-4), KS Y-1. As to the kind of experiment: Syngeneic tumors in C57BL/6 mice, KS Y-1 in nude mice. In kind it is in vivo. The note with it: 2.5 mg/kg the day following implantation; two weeks. The method, then:
FIG. 4: Inhibition of tumor growth in mice. C57BL/6 mice were implanted with Lewis lung carcinoma, melanoma (B16), and T-cell lymphoma (EL4). KS Y-1 was implanted in nude mice as a positive control. One day after implantation 2.5 mg/kg of Saposin B was injected into the mice subcutaneously.
To determine whether this anti-tumor effect was reproducible with different classes of syngeneic tumors, C57BL/6 mice were implanted with Lewis lung carcinoma, melanoma (B16), and T-cell lymphoma (EL-4) cell lines. KS Y-1 was implanted into nude mice for a positive control. The day following tumor implantation, 2.5 mg/kg of Saposin B was administered intraperitoneally. Tumor size was measured three times a week for two weeks at which time the mice were sacrificed for analysis. […] See, FIG. 4

In data set [2] the test system is Human bone marrow cells and peripheral blood mononuclear cells. As to the kind of experiment: Stem cell clonogenic assays in methylcellulose. Type of data set: cell-based. The method, then: Human bone marrow cells and peripheral blood mononuclear cells were harvested from a subject after the administration of high doses of cyclophosphamide and G-CSF. Stem cell clonogenic assays in methylcellulose were performed with IL-3, erythropoietin, and VEGF (10 ng/mL, and 100 ng/mL). VEGF was used to determine if there are progenitor cells with self replication capacity but without adherence to extracellular matrix such as fibronectin. It was also desirable to determine if Saposin B was toxic to endothelial cell specific progenitors for hematopoietic (myeloid or erythroid) lineage cells.
These colonies contained mixture of cells indicating more than one cell lineage generated in response to VEGF. The colonies also contained spindle shaped cells which mark the presence of VEGF receptors.

A further data set has as its system KS Y-1 tumor. Description: Established KS tumors in mice. Type of data set: in vivo. The method, then:
FIG. 5: Effect of two daily doses of Saposin B on growth of an established KS Y-1 tumor. The arrow marks initiation of daily subcutaneous dosing.
In further experiments, KS tumors were allowed to grow for five days before treatment with Saposin B (1 and 5 mg/kg daily at a distal site from the timor). In control mice, tumors grew to a weight of 555±mg. […] Tumors excised at the conclusion of the experiments were also examined for apoptosis, blood vesel density, andmitotic index. […] Thus, contrary to the results in vitro, Saposin B has an inhibitory effect against non-KS tumors.

A further data set relates to KS cell lines. Description: Activity of recombinant Prosaposin chains on growth of KS cell lines. Type of data set: cell-based. The note with it: FIG. 1. An excerpt:
In order to determine whether recombinant Saposin B has anti-angiogenic activity, the coding region of each of the Prosaposin chains was amplified from fibroblast cell lines and cloned into both bacterial (pGEX-KG) and eukaryotic (pcDNA 3.1His A) expression vectors.
The PCR products were digested with the respective restriction enzymes and the restriction products were inserted into the pGEX-KG vector for bacterial expression. pGEX-KG vector comprises a glutathione S transferase (GST)-tag at the […] of the insertion site so that a GST-fusion protein is expressed. The GST-tag is used to aid in purification of the recombinant protein. After elution from a glutathione-Sepharose 4B column, the GST-tagged proteins were incubated with thrombin (4 μg/ml) for 4 hr at room temperature (22-25° C.) in 50 mM Tris, pH 8.3, 3 mM CaCl2, 150 mM NaCl to cleave GST from the fusion protein. Free GST was removed from the preparation by passing the digested fusion protein through the glutathione-Sepharose 4B column.
(§1) By SDS-PAGE, the bacterial product was smaller than the eukaryotic protein. Because prokaryotically expressed proteins are not glycosylated, the difference in molecular weights probably represents the presence of carbohydrate in the eukaryotic protein. Recombinant proteins were then tested in KS, endothelial and control cell lines. Activity was found only in KS cell lines and endothelial cells.

Data set [3] relates to endothelial cells (HUVEC). Description: Growth inhibition of endothelial cells. In kind it is cell-based. The method, then: FIG. 1D: Activity of n-terminus decapeptide (DVCQDCIQMV; SEQ ID NO 21).
FIG. 1E: Activity of N-terminus pentapeptide (DVCQC; SEQ ID NO: 28).
as §1

The subject of data set [4] is CD34+ cord blood derived cells. As to the kind of experiment: Viability of CD34+ cord blood derived cells. In kind it is cell-based, human. The source says:
However in the presence of Saposin B, CD34^+/Flk-1^+ progenitor […] was inhibited.
Saposin B was found not to be toxic to most CD34^+ cord blood derived cells, since the difference in viability of Saposin B treated CD34^+ cells was only around 20% when compared to control cells. Thus Saposin B not only targets fully differentiated and activated endothelial cells, but also a circulating progenitor, previously shown to target angiogenic sites.

For the next data set, the system named is KS-SLK or KS Y-1 cells. Description: KS-SLK or KS Y-1 tumors in nude mice. To be noted: daily subcutaneous 1, 10 and 20 mg/kg after one week of tumor development. Type of data set: in vivo. As to the method: In order to determine the anti-angiogenic activity of the recombinant Saposin B, tumor cells were implanted in immuno-deficient mice and treated with either Saposin B or buffer alone.
Nude mice were injected with 2×10^6 KS-SLK or KS Y-1 cells subcutaneously in a total volume of 100 μL. After one week of tumor development, the mice were injected subcutaneously daily with either PBS or Saposin B at concentrations of 1, 10 and 20 mg/kg for a total protein concentration of […]. The tumor size was measured three times a week. The results represent the median of 4 mice in each group.

Data set [5] has as its system CD34+/Flk-1+ cells from cord blood. Description: Growth of CD34+/Flk-1+ progenitors on fibronectin coated dishes. Type of data set: cell-based, human. The note with it: 50 ng/mL Saposin B. The source says: A bone marrow derived human CD34+/Flk-1+ progenitor cell can be mobilized into the blood stream in response to tumor induced signals such as VEGF and cytokine production. These cells can target to sites of angiogenesis where they mature into activated endothelial cells and thus contribute to the generation of new blood vessels at the tumor site. By blocking the production of these cells or by targeting these cells (i.e., the CD34+/Flk-1+ progenitors and the activated endothelial cell they can become), the angiogenesis/vasculogenesis required for tumor growth can be reduced or halted. […] The adherent cells take on a spindle-shaped morphology characteristic of the activated vascular endothelial cells typical of the angiogenic process. These cells express endothelial-specific markers including factor VIII, ulex europaeus agglutinin-1 (UEA-1), endothelial constitutive nitric oxide synthase (ecNOS), and E selectin. Further, when these cells (peripheral blood Flk+ progenitors) are infused into mice, they incorporate into newly formed blood vessels at site of injury. These observation identify CD34+/Flk-1+ bone marrow derived progenitors as a putative precursor to vascular endothelial cells. Preventing these cells from colonizing at distal sites of angiogenesis in tumors has enormous implication for the treatment of tumors. […]

B1: Saposin B: polypeptide fragment of Prosaposin (positions 190 to 269), SEQ ID NO:2; recombinantly expressed (protein)
chain: GDVCQDCIQMVTDIQTAVRTNSTFVQALVEHVKEECDRLGPGMADICKNYISQYSEIAIQMMMHMQPKEICALVGFCDEVK
For B1, the tumor growth entry in data set [1] was “profound inhibition of tumor growth”. The “cytotoxic effect on colonies developed with IL-3 or erythropoietin” value in data set [2] is on record as “no cytotoxic effect”. In data set [2] (VEGF 10 ng/mL and 100 ng/mL), the “effect on colonies generated with VEGF” value was “loss of spindle shaped cells”. In the data set with KS Y-1 tumor (1 and 5 mg/kg daily), the “apoptosis in excised tumors” value was “increase in apoptosis” and the “blood vessel density in excised tumors” value is listed as “decrease in blood vessel density”. Further, the “weights of excised tumors relative to controls” value in the data set on KS Y-1 tumor (treatment from day five, 1 and 5 mg/kg daily at a distal site) is on record as “approximately 23%”. Besides, the “growth inhibition of KS cells” value in the data set with KS cell lines was “dose dependent growth inhibition”. The “growth inhibition of endothelial cells” value in data set [3] (FIG. 1, 1D, 1E) is reported as “dose dependent growth inhibition”. The “growth inhibition of proliferating versus quiescent endothelial cells (HUVEC)” value in data set [3] (FIG. 1B) was “Only proliferating and not quiescent endothelial cells (HUVEC) show dose dependent growth inhibition”. For the same molecule, the “difference in viability of treated CD34+ cells compared to control cells” value in data set [4] is given as “around 20%”. Besides, the tumor growth result in the data set on KS-SLK or KS Y-1 cells is “markedly retarded”. Also, in data set [5], the “CD34+/Flk-1+ progenitor growth” value was “inhibited”.

These data come from US6500431B1, “Inhibitors of angiogenesis and tumor growth” (University of Southern California, priority 1998, dated 2002).
